Experimental data as given in article PMC8585875.
pKd: −log10 of the molar value.

Tests used:
[1] = biological target: H6-Rap80(35-124)-S18C-C70S-C121S-7A-Linker, Atto488-labelled (human) (UniProt Q96RL1); test: fluorescence polarisation; fluorescence anisotropy; hybrid chain titrated to 300 nM Atto488-labelled Rap80(35-124); 20 mM Tris pH 6.8, 100 mM NaCl, 4 mM DTT; single-site binding model
[2] = biological target: H6-Rap80(1-137)-7A-Linker (human) (UniProt Q96RL1); test: pull-down; H6-Rap80(1-137)-7A-Linker on Ni-NTA agarose; 3.5 µM hybrid chain in 50 µl; 50 mM TRIS pH 7.5, 150 mM NaCl, 2 mM TCEP, 0.1% NP-40; 1 h at 4 °C; Coomassie SDS-PAGE, densitometry normalised to Rap80

pKd [1]	fold affinity against the linearly linked hybrid chain (densitometry of the pull-down) [2] [fold]	Substance
5.92	–	linear diUb-SUMO2 hybrid chain, wt/LPT-linked (from UniProt P0CG48 1-76; P0CG48 1-76) (complex)
–	2	K63-diUb-K21-SUMO2 hybrid chain (Srt2A/Srt5M-generated) (from UniProt P0CG48 1-76; P0CG48 1-76; P61956 1-95) (complex)
